Experimental data published in US20260193307A1 (ASKGENE PHARMA, published 2026).

Assays:
IL-2 [1] = biological target: T1, IL-2 (UniProt P60568 21-153); assay: cell-based or functional assay
IL-2 [2] = biological target: T1, IL-2; assay: ForteBio (BLI), purified scFv-Fc to IL-2

T1 sequence (P60568 21-153 limits assumed): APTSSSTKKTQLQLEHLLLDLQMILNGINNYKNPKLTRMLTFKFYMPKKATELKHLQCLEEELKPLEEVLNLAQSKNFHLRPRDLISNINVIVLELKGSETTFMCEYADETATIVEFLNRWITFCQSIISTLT

| Binder | IC50, CTLL2 cell-based IL-2 activity inhibition assay (50 nM IL-2) (IL-2 [1]) [nM] | Kd (IL-2 [2]) [nM] | Response (IL-2 [2]) |
| --- | --- | --- | --- |
| K1-69C7 scFv-Fc (JR8.153.1) (Fc fusion, Purified scFv-Fc homodimer; also called JR8.153.1 K1-69C7; not shown: Fc fragment (human Fc domain)) DIQMTQSPSSLSASVGDRVTITCRASQDISNYLNWYQQKPGKAPKLLIYGASSLQSGVPSRFSGSGSGTDFTLTISSLQPEDFATYYCQQTYTIPLTFGQGTKVEIKAGGGGSGGGGSGGGGSQVQLVQSGAEVKKPGSSVKVSCKASGGTFTSYAINWVRQAPGQGLEWMGRIIPIIGRVDYAQKFQGRVTITADESTSTAYMELSSLRSEDTAVYYCARGFVGGFDVWGQGTLVTVSS | 7 | 0.117 | 3.5 |
| K3-30B12 scFv-Fc (JR8.156.6) (Fc fusion, Purified scFv-Fc homodimer; also called JR8.156.6 K3-30B12; not shown: Fc fragment (human Fc domain)) DIQMTQSPSSLSASVGDRVTITCRASQDISTYLNWYQQKPGKAPKLLIYDASSLQSGVPSRFSGSGSGTDFTLTISSLQPEDFATYYCQQSYSAPLTFGQGTKVEIKAGGGGSGGGGSGGGGSEVQLLESGGGLVQPGGSLRLSCAASGFTFSTYAMSWVRQAPGKGLEWVSTISGSGVRTYYADSVKGRFTISRDNSKNTLYLQMNSLRAEDTAVYYCARETYIYGPFDVWGQGTLVTVSS | – | 0.605 | 3.1 |

Continued, values first:

| IC50, CTLL2 cell-based IL-2 activity inhibition assay (50 nM IL-2) (IL-2 [1]) [nM] | Kd (IL-2 [2]) [nM] | Response (IL-2 [2]) | Binder |
| --- | --- | --- | --- |
| 11.3 | < 0.001 | 3 | K1-69H5 scFv-Fc (JR8.144.3) (Fc fusion, Purified scFv-Fc homodimer; also called JR8.144.3 K1-69H5; not shown: Fc fragment (human Fc domain)) EIVLTQSPGTLSLSPGERATLSCRASQSVSSSYLAWYQQKPGQAPRLLIYGASSRATGIPDRFSGSGSGTDFTLTISRLEPEDFAVYYCQQYSRAPGTFGQGTKVEIKAGGGGSGGGGSGGGGSQVQLVQSGAEVKKPGSSVKVSCKASGGTFSSYGIHWVRQAPGQGLEWMGGIIPILGTANYAQKFQGRVTITADESTSTAYMELSSLRSEDTAVYYCAVPFFDVWGQGTLVTVSS |
| – | < 0.001 | 3 | K3-15F7 scFv-Fc (JR8.144.4) (Fc fusion, Purified scFv-Fc homodimer; also called JR8.144.4 K3-15F7; not shown: Fc fragment (human Fc domain)) DIQMTQSPSSLSASVGDRVTITCRASQDIRRYLNWYQQKPGKAPKLLIYAASSLQSGVPSRFSGSGSGTDFTLTISSLQPEDFATYYCQQAYSIPLTFGQGTKVEIKGGGGSGGGGSGGGGSEVQLVESGGGLVKPGGSLRLSCAASGFTFSNAWMSWVRQAPGKGLEWVGRIKSKTAGGTTDYAAPVKGRFTISRDDSKNTLYLQMNSLKTEDTAVYYCARDWWYLDFDYWGQGTLVTVSS |
